# Substrate: NO
# Assay: reoxidation of reduced methyl viologen
# Format: biochemical, Carboxydothermus hydrogenoformans
# Details: 0-100 mM NH2OH; reduced methyl viologen as artificial electron donor; two-electron reduction to ammonia and water
# Source text: reoxidation of reduced methyl viologen on CooS‐V Ch | hyperbolic dependency on the NH2OH concentration (Figure S2‐C)
protein,measurement,value
"CooS‐V Ch (Carboxydothermus hydrogenoformans Z-2901) (protein, full length, 629 residues; homodimer, apparent 118 kDa; [2Fe-2S], [4Fe-4S] and Fe/S/O hybrid cluster, no Ni) MATKTSIHPSVNELYQRLAEDQLSNCFDRFDPQEKIRCNYCELGVSCQLCSNGPCRINEKVGATLGVCGINADGMAMRYMLLRNVMGTSTYTYHAYEAYKTLKMTALGNTPFTITDKDKLYQMAKDLELNTEGKPEDVAVRLSDFLIWELYRDYDEPGKMIEVYAPLKRKEVWRKLGIYPAGPLHELKDAAASCLTNVDGDYVSLATKGLRLGLSCIYGAQIGLELVQDILFGTGMPHEMDVDLGIFDADYINIVFNGHEPFVGVALILAAKEAVNQDKAKAAGAKSLRIYGSIESGQEVVQRFQKDEVFRGLTGNWLTIEPMLATGAVDVLAMDMNCSPPNLGPLAEKYGATLVSVSRLVRFPGIHHFLDYKPSEVREIAQKIIDIAVDSFKNKRHGKITPKIPANIQKAITGFTPEAILKALGGSINPLIEVIKAGKIKGAVGLINCTTLKNGPQDYVTVNLAKELIKRDILILSGGCGNHALEVAGLCNLDAINLAGPGLSEVCRNLNIPPVLSFGTCTDTGRISLVVTALANALNVDTADLPVAVTAPMYMEQKATIDALFALAYGLYTHVAPDPPVMGAPNLVKLLTRDLPSITGGRIAVGSDPVKVADDILAHINDRRAKLGI",Km,7.6 ± 2.0 mM
same,kcat,0.13 s–1
